From patent publication US20260078341A1, “TREATMENT OF CANCER USING CHIMERIC ANTIGEN RECEPTOR” (Novartis AG, priority 2014, published 2026)

Molecular target: Folate receptor alpha on cells (SKOV3, A1847, T47D; low levels on 293T and IOSE6) (human) (UniProt P15328)
Test: cell-based or functional assay

Sequence of Folate receptor alpha on cells (SKOV3, A1847, T47D; low levels on 293T and IOSE6) (human) (P15328 25-234, stated change not applied): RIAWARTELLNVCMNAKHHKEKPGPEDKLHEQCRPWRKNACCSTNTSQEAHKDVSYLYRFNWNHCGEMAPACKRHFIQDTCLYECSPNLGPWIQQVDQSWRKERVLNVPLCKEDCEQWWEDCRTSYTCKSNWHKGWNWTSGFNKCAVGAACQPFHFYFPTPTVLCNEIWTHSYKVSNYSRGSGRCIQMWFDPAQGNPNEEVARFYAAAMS

- frequency of T cells with surface CAR before exposure to SKOV3 tumor cells: 65 % of T cells
- frequency of T cells with surface CAR five hours after exposure to SKOV3 tumor cells: 1 % of T cells
Substance: MOv19-27z CAR (murine anti-human FRA MOv19 CAR)
